Source: the supplement of paper PMC10567573

B1: PLD5 (parent)
chain: KRTYWPDLDAKIREALVLRSVRVR
B2: SNAP91 (parent)
chain: FATASAAVPVSTSKPSSDLLDLQP

Variants of: B1
Assay: protein stability index of a GFP-peptide fusion (GPS, HEK-293T) (PSI 1-6); higher = more stable
Details: c terminus: a fixed tail appended
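Further: lentivirally expressed fusions sorted by FACS into six bins by GFP to DsRed ratio, PSI derived from sequencing read proportions per bin multiplied by bin number.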

Question: For L18E, which protein stability index is on record?
Answer: 2.93

Question: With L18F as the variant, how does the protein stability index read?
Answer: 1.78

Question: Which protein stability index does the source give for L18G here?
Answer: 1.91

Question: For L18H, which protein stability index is on record?
Answer: 2.16

Question: Which protein stability index does the source give for L18I here?
Answer: 1.64

Question: For L18K, which protein stability index is on record?
Answer: 2.64

Question: Which protein stability index does the source give for L18M here?
Answer: 1.51

Question: With L18N as the variant, how does the protein stability index read?
Answer: 2.45

Question: For L18R, which protein stability index is on record?
Answer: 2.12

Question: With L18S as the variant, how does the protein stability index read?
Answer: 1.88

Question: With L18T as the variant, how does the protein stability index read?
Answer: 1.71

Question: Which protein stability index does the source give for L18V here?
Answer: 1.6

Question: For L18W, which protein stability index is on record?
Answer: 2.04

Question: For L18Y, which protein stability index is on record?
Answer: 2.09

Question: Which protein stability index does the source give for R19C here?
Answer: 2.36

Question: With R19E as the variant, how does the protein stability index read?
Answer: 1.69

Question: Which protein stability index does the source give for R19H here?
Answer: 1.48

Question: With R19K as the variant, how does the protein stability index read?
Answer: 1.45

Question: For R19N, which protein stability index is on record?
Answer: 2.8

Question: Which protein stability index does the source give for R19Q here?
Answer: 2.53

Question: With R19S as the variant, how does the protein stability index read?
Answer: 1.8

Question: Which protein stability index does the source give for R19T here?
Answer: 2.53

Question: For R19Y, which protein stability index is on record?
Answer: 2.67

Question: Which protein stability index does the source give for S20K here?
Answer: 1.48

Question: With S20N as the variant, how does the protein stability index read?
Answer: 1.77

Question: With S20Q as the variant, how does the protein stability index read?
Answer: 2.04

Question: Which protein stability index does the source give for S20R here?
Answer: 2

Question: With S20T as the variant, how does the protein stability index read?
Answer: 1.96

Question: For V21A, which protein stability index is on record?
Answer: 1.84

Question: For V21E, which protein stability index is on record?
Answer: 2.24

Question: Which protein stability index does the source give for V21F here?
Answer: 3.54

Question: For V21G, which protein stability index is on record?
Answer: 2.4

Question: With V21H as the variant, how does the protein stability index read?
Answer: 2.11

Question: For V21I, which protein stability index is on record?
Answer: 1.66

Question: Which protein stability index does the source give for V21K here?
Answer: 2.75

Question: Which protein stability index does the source give for V21M here?
Answer: 2.51

Question: For V21N, which protein stability index is on record?
Answer: 2.48

Question: With V21Q as the variant, how does the protein stability index read?
Answer: 2

Question: With V21R as the variant, how does the protein stability index read?
Answer: 2.4

Question: With V21S as the variant, how does the protein stability index read?
Answer: 2.09

Question: For V21T, which protein stability index is on record?
Answer: 1.91

Question: With V21Y as the variant, how does the protein stability index read?
Answer: 2.68

Question: With R22A as the variant, how does the protein stability index read?
Answer: 1.45

Question: For R22C, which protein stability index is on record?
Answer: 2.32

Question: Which protein stability index does the source give for R22D here?
Answer: 2.31

Question: With R22E as the variant, how does the protein stability index read?
Answer: 2.02

Question: Which protein stability index does the source give for R22G here?
Answer: 1.65

Question: For R22H, which protein stability index is on record?
Answer: 1.51

Question: With R22K as the variant, how does the protein stability index read?
Answer: 1.99

Question: Which protein stability index does the source give for R22L here?
Answer: 1.4

Question: For R22P, which protein stability index is on record?
Answer: 1.65

Question: With R22S as the variant, how does the protein stability index read?
Answer: 2.14

Question: With R22T as the variant, how does the protein stability index read?
Answer: 1.59

Question: With R22V as the variant, how does the protein stability index read?
Answer: 2.14

Question: Which protein stability index does the source give for R22Y here?
Answer: 1.61

Question: With V23A as the variant, how does the protein stability index read?
Answer: 1.93

Question: For V23C, which protein stability index is on record?
Answer: 1.61

Question: Which protein stability index does the source give for V23D here?
Answer: 2.35

Question: Which protein stability index does the source give for V23E here?
Answer: 1.64

Question: With V23F as the variant, how does the protein stability index read?
Answer: 1.9

Question: With V23H as the variant, how does the protein stability index read?
Answer: 2.1

Question: With V23I as the variant, how does the protein stability index read?
Answer: 1.96

Question: With V23K as the variant, how does the protein stability index read?
Answer: 1.99

Question: For V23L, which protein stability index is on record?
Answer: 1.03

Question: With V23M as the variant, how does the protein stability index read?
Answer: 3.02

Question: Which protein stability index does the source give for V23N here?
Answer: 2.54

Question: For V23P, which protein stability index is on record?
Answer: 3.22

Question: With V23Q as the variant, how does the protein stability index read?
Answer: 2.12

Question: Which protein stability index does the source give for V23T here?
Answer: 1.88

Question: With V23W as the variant, how does the protein stability index read?
Answer: 1.78

Question: For V23Y, which protein stability index is on record?
Answer: 1.74

Question: Which protein stability index does the source give for R24A here?
Answer: 1.53

Question: Which protein stability index does the source give for R24C here?
Answer: 2.52

Question: Which protein stability index does the source give for R24D here?
Answer: 2.27

Question: For R24E, which protein stability index is on record?
Answer: 1.94

Question: For R24F, which protein stability index is on record?
Answer: 2.13

Question: With R24H as the variant, how does the protein stability index read?
Answer: 1.74

Question: For R24I, which protein stability index is on record?
Answer: 2.32

Question: With R24K as the variant, how does the protein stability index read?
Answer: 1.08

Question: Which protein stability index does the source give for R24L here?
Answer: 1.77

Question: With R24M as the variant, how does the protein stability index read?
Answer: 1.68

Question: Which protein stability index does the source give for R24N here?
Answer: 1.62

Question: With R24P as the variant, how does the protein stability index read?
Answer: 2.01

Question: With R24Q as the variant, how does the protein stability index read?
Answer: 3.34

Question: Which protein stability index does the source give for R24S here?
Answer: 1.97

Question: Which protein stability index does the source give for R24T here?
Answer: 1.52

Question: Which protein stability index does the source give for R24Y here?
Answer: 2.74

Variants of: B2
Assay: as above
Details: c terminus: a fixed tail appended

Question: For S16P, which protein stability index is on record?
Answer: 3.5

Question: For P15Q, which protein stability index is on record?
Answer: 3.44

Question: With S16V as the variant, how does the protein stability index read?
Answer: 3.6

Question: For L22K, which protein stability index is on record?
Answer: 4.16

Question: For S11T, which protein stability index is on record?
Answer: 3.71

Question: For S13L, which protein stability index is on record?
Answer: 3.09

Question: For Q23N, which protein stability index is on record?
Answer: 4.08

Question: For P15K, which protein stability index is on record?
Answer: 3.57

Question: Which protein stability index does the source give for F1L here?
Answer: 4.62

Question: With A4S as the variant, how does the protein stability index read?
Answer: 3.8

Question: With D21L as the variant, how does the protein stability index read?
Answer: 2.48

Question: With A7E as the variant, how does the protein stability index read?
Answer: 4.4

Question: With P15E as the variant, how does the protein stability index read?
Answer: 4.89

Question: With S5C as the variant, how does the protein stability index read?
Answer: 3.02

Question: For A4W, which protein stability index is on record?
Answer: 1.64

Question: With D18P as the variant, how does the protein stability index read?
Answer: 3.3

Question: Which protein stability index does the source give for S11N here?
Answer: 3.76

Question: With V10I as the variant, how does the protein stability index read?
Answer: 3.39

Question: For A4H, which protein stability index is on record?
Answer: 4.06

Question: Which protein stability index does the source give for S5Q here?
Answer: 3.38

Question: Which protein stability index does the source give for T3F here?
Answer: 2.15

Question: Which protein stability index does the source give for A4L here?
Answer: 2.89

Question: Which protein stability index does the source give for T12Y here?
Answer: 3.28

Question: With A7C as the variant, how does the protein stability index read?
Answer: 3.07

Question: Which protein stability index does the source give for P24A here?
Answer: 3.94

Question: Which protein stability index does the source give for S5Y here?
Answer: 1.67

Question: Which protein stability index does the source give for L22S here?
Answer: 4.16

Question: Which protein stability index does the source give for T3N here?
Answer: 3.24

Question: With A2V as the variant, how does the protein stability index read?
Answer: 1.65

Question: Which protein stability index does the source give for A2G here?
Answer: 4.09

Question: With S11K as the variant, how does the protein stability index read?
Answer: 3.84

Question: Which protein stability index does the source give for D18H here?
Answer: 3.04

Question: With V8R as the variant, how does the protein stability index read?
Answer: 3.79

Question: With T3G as the variant, how does the protein stability index read?
Answer: 2.65

Question: Which protein stability index does the source give for S11F here?
Answer: 1.7

Question: With S16A as the variant, how does the protein stability index read?
Answer: 4.02

Question: Which protein stability index does the source give for P15H here?
Answer: 3.96

Question: For T12H, which protein stability index is on record?
Answer: 4.3

Question: With T3I as the variant, how does the protein stability index read?
Answer: 2.81

Question: Which protein stability index does the source give for D21G here?
Answer: 4.09

Question: For A2Y, which protein stability index is on record?
Answer: 3.77

Question: With A2N as the variant, how does the protein stability index read?
Answer: 3.85

Question: Which protein stability index does the source give for S13F here?
Answer: 3.22

Question: With S17A as the variant, how does the protein stability index read?
Answer: 3.68

Question: For P9F, which protein stability index is on record?
Answer: 1.93

Question: For S13V, which protein stability index is on record?
Answer: 3.52

Question: For A4C, which protein stability index is on record?
Answer: 2.66

Question: For S11V, which protein stability index is on record?
Answer: 3.62

Question: For F1Q, which protein stability index is on record?
Answer: 5.06

Question: For P24Q, which protein stability index is on record?
Answer: 4.06

Question: Which protein stability index does the source give for P15F here?
Answer: 2.54

Question: Which protein stability index does the source give for D21R here?
Answer: 3.28

Question: For S5N, which protein stability index is on record?
Answer: 3.66

Question: With L19T as the variant, how does the protein stability index read?
Answer: 4.22

Question: For V8P, which protein stability index is on record?
Answer: 4.07

Question: For S16M, which protein stability index is on record?
Answer: 3.43

Question: With K14S as the variant, how does the protein stability index read?
Answer: 4.01

Question: With P15C as the variant, how does the protein stability index read?
Answer: 3.15

Question: For L22M, which protein stability index is on record?
Answer: 3.87

Question: For V8S, which protein stability index is on record?
Answer: 3.87

Question: For D18M, which protein stability index is on record?
Answer: 2.87

Question: With S5V as the variant, how does the protein stability index read?
Answer: 3.21

Question: For V8D, which protein stability index is on record?
Answer: 4.64

Question: For K14R, which protein stability index is on record?
Answer: 3.87

Question: Which protein stability index does the source give for P24R here?
Answer: 3.71

Question: For A2S, which protein stability index is on record?
Answer: 4.01

Question: For P15L, which protein stability index is on record?
Answer: 2.72

Question: Which protein stability index does the source give for T12F here?
Answer: 3.07

Question: For D21T, which protein stability index is on record?
Answer: 3.51

Question: Which protein stability index does the source give for D21V here?
Answer: 3.23

Question: For L22Y, which protein stability index is on record?
Answer: 3.99

Question: With D21S as the variant, how does the protein stability index read?
Answer: 3.25

Question: With A2F as the variant, how does the protein stability index read?
Answer: 3.21

Question: Which protein stability index does the source give for L20A here?
Answer: 4

Question: For A7L, which protein stability index is on record?
Answer: 2.93

Question: Which protein stability index does the source give for P24C here?
Answer: 3.56

Question: For P9M, which protein stability index is on record?
Answer: 2.29

Question: With L20Y as the variant, how does the protein stability index read?
Answer: 3.74

Question: For K14I, which protein stability index is on record?
Answer: 3.5

Question: Which protein stability index does the source give for T3Y here?
Answer: 1.98
